Experiment [1] has as its target recombinant human CD73 protein (ecto-5'-nucleotidase), expressed by the applicant, C-terminal 6x His tag (human) (UniProt P21589). The experiment is described as follows: SPR, Biacore T200, antibody captured, human CD73 injected, 25 °C, 1:1 fit.
In another experiment the target is CD73 on A549 cells (UniProt P21589). The experiment is described as follows: cell-based or functional assay.
The target of experiment [2] is recombinant human CD73 protein (ecto-5'-nucleotidase), expressed by the applicant, C-terminal 6x His tag (human) (UniProt P21589). The experiment is described as follows: cell-based or functional assay.

The Kd is the constant that tells how readily two partners part at equilibrium. Usually koff stands for the first-order rate constant of dissociation. As usually defined, the kon is the second-order rate constant of association.

For MEDI-9447 (antibody), in experiment [1], the Kd was found to be 0.107 nM, the koff turned out to be 6.9e-05 s⁻¹ and the kon amounted to 647000 M⁻¹ s⁻¹. In the experiment with CD73 on A549 cells, this substance had an EC50 (µg/mL), Cell level (A549 cells), inhibition of the enzyme activity of CD73 of 0.113 µg/mL. Also, the EC50 (µg/mL), Biochemical level, inhibition of the enzyme activity of CD73 in experiment [2] stood at 0.188 µg/mL.

For the origin of these results see patent publication US20220356267A1.
